{
  "source": "patent US20040050316A1",
  "about": "(published 2004)",
  "target": "the molecule itself",
  "experiment": "X-ray crystal structure (self-association of subunits)",
  "excerpt": "Native data, to 2.2 Å resolution, were collected at station 9.6 of the S.R.S. Daresbury, from crystals frozen at liquid nitrogen temperatures in a cryo-protecting solution comprising of mother liquor plus 20% glycerol. The structure was solved by multiple isomorphous replacement with anomalous scattering using three heavy atom derivatives. Table 1 details data collection and heavy atom statistics; the HKL package (Otwinowski, Z & Minor, W (1997) Methods Enzymol 276, 307-326), and the CCP4 (Acta Crystallogr D 50 (1994) 760-763) software suite were used for data processing and analysis. Heavy atom positions were derived from difference Patterson and difference Fourier calculations. The SHARP program (Fortelle E. d. -L. & Bricogne, G. (1997) Methods Enzymol 276, 472-494) was used to refine the heavy atom parameters and obtain initial phases, further heavy atom sites were identified from the residual map analysis available in SHARP. […]\nThe initial model of AMPDA was traced using the QUANTA package (Molecular Simulations Inc) and refined using all data to 2.2 Å with X-PLOR (Briinger, A. T. (1993) X-PLOR Version 3.1 A system for X-ray crystallography and NMR, Yale University Press, New Haven, Conn.). […] The current model has a Rcryst=21.2% and a Rfree=25.4%, calculated on 5% of the data set (Branger, A. T. (1992) Nature 355, 472-475).",
  "data": [
    {"protein": "rabbit AMP deaminase (AMPDA) catalytic domain, starting at Leu96 (enzyme, Purified from rabbit skeletal muscle; also called rabbit AMPDA; truncated enzyme) LSHIDEYISLSPTYQTVPDFQRVQITGDYASGVTVEDFEIVCKGLYRALCIREKYMLKSFQRFPKTPSKYLRSIEGTAWKANESSYPVFTPALKKGEDPFRTDNLPENLGYHLKMKDGVVYIYANEAAAGKDEPKPLLYPNMEEFLDDMNFLLALIAQGPVKTYTHRRLKFLSSKFQVHQMLNEMDELKELKNNPHRDFYNCRKVDTHIHAAACMNQKHLLRFIKKSYQVDADRVVYSTKEKNLTLKQLFDKLKLHPYDLTVDSLDVHAGRQTFQRFDKFNDKYNPVGASELRDLYLKTDNYINGEYFATIIKEVGADLVDAKYQHAEPRLSIYGRSPDEWSKLSSWFVRNRIYSSNMTWMIQVPRIYDVFRSKNFLPHFGKMLENVFMPVFEATINPQAHPELSVFLKHITGFDSVDDESKHSGHMFSSKSPKPQEWTLEKNPSYTYYAYYMYANIMVLNSLRKERGMNTFLFRPHCGEVGALTHLMTAFMTADNISHGLNLKKSPVLQYLFFLAQIPIAMSPLSNNSLFLEYAKNPFLDFLQKGLMISLSTDDPMQFHFTKEPLMEEYAIAAQVFKLSTCDMCEVARNSVLQCGISHEEKAKFLGNNYLEEGPIGNDIRKTNVAQIRMAYRYETWCYELNLIAEGLKSTE", "values": [
      {"measurement": "binding result", "value": "binds"}
    ]}
  ]
}
